For experiment [1], the target named is T1, Murine folate receptor alpha (mouse, UniProt P35846 25-232).
T1 construct: Stably expressed on CHO cells (CHO-mFOLR1); also called mouse FOLR1; CHO-mFOLR1
The experiment can be described thus: FACS, CHO-mFOLR1 cells. A general note: Flow cytometry measures light scatter and fluorescence of single cells or particles in a stream.

Experiment [2] concerns the target T2, Human folate receptor alpha (hFOLR1) (human, UniProt P15328 25-234).
T2 construct: Stably expressed on CHO cells (CHO-hFOLR1) for flow cytometry; endogenous on FOLR1-positive KB and Igrov1 cells in the killing assay; also called human FOLR1; FolRα
The experiment can be described thus: FACS, CHO-hFOLR1 cells. The protocol: CHO cells were transfected to stably express human (CHO-hFOLR1), cynomolgus (CHO-cFOLR1), or mouse (CHO-mFOLR1) target molecule FOLR1 on the cell surface. Parental CHO cells were used as a negative control to determine background binding levels. Parental CHO and stably transfected CHO-hFOLR1, CHO-cFOLR1, and CHO-mFOLR1 cells were cultured in Ham's F-12: high glucose DMEM (50:50) (Corning, Cellgro-Mediatech) supplemented with 10% heat-inactivated fetal bovine serum (Corning, Cellgro-Mediatech), 1% Penicillin/Streptomycin (Corning, Cellgro-Mediatech) and 2 mmol/L-glutamax (Life Technology).
A mixture of fluoresecent-labeled parental CHO cells and unlabeled CHO-hFOLRlcells were prepared as follows. Parental CHO cells were washed twice in PBS and incubated in PBS containing with 1 nM CellTrace™ Oregon Green488® (Life Technologies) at 37° C. for 30 minutes. Labeled parental CHO cells were then washed 2× with Ham's F-12 media and 2× with FACS buffer (PBS with 1% bovine serum albumin). Unlabeled CHO-hFOLR1 cells were similarly washed and prepared. Labeled parental CHO and unlabeled CHO-hFOLR1 cells were combined at 1:1 ratio and seeded at 50 μL per well (200,000 cells per well) in 96 well polypropylene plates. Cells were mixed with 50 μL of test antibodies (i.e., anti-FOLR1 variants) serially diluted in FACS buffer and incubated on ice for 60 mins. Cells were washed with FACS buffer and incubated on ice for 60 mins with 100 μL FACS buffer containing 2.5 μg/mL R-Phycoerythrin-conjugated goat anti-Human IgG (Jackson ImmunoResearch Laboratories, West Grove, Pa.). Cells were washed twice with FACS buffer, fixed in 2% paraformaldehyde in PBS (Santa Cruz Biotechnology; Dallas, Tex.) for 10 mins on ice in the dark, and analyzed using the BD LSR II Flow Cytometer (BD Biosciences; San Jose, Calif.). Data were analyzed using FlowJo® software (FlowJo, LLC; Ashland, Oreg.) to determine mean fluorescence intensities. Binding constants were calculated using the statistical software, GraphPad Prism (GraphPad Software; La Jolla, Calif.) using the nonlinear regression equation, one site-specific binding with Hill slope. Secondary antibody alone was used as a control, in addition to measuring non-specific antibody binding to CHO parental cells.

Experiment [3] addresses T3, Cynomolgus folate receptor alpha (cynomolgus monkey, UniProt P15328 25-234 (human entry)).
T3 construct: Stably expressed on CHO cells (CHO-cFOLR1); also called cynomolgus FOLR1; CHO-cFOLR1
The experiment can be described thus: FACS, CHO-cFOLR1 cells.

Another experiment has as its target T4, human FOLR1-HIS (human, UniProt P15328 25-234).
T4 construct: Soluble analyte of the Biacore assay; also called human folate receptor alpha; hFOLR1; not shown: HIS tag
The experiment can be described thus: SPR (Biacore), antibody captured on anti-Fc, FOLR1-HIS as analyte, 25 C. Here is the method: Anti-Fc polyclonal antibodies were immobilized onto a CM5 chip (GE Life Sciences) using amine coupling chemistry (from Amine Coupling Kit, GE Life Sciences). The immobilization steps were carried out at a flow rate of 25 μL/min in 1×HBS-EP+buffer (GE Life Sciences; 10× Stock diluted before use). The sensor surfaces were activated for 7 min with a mixture of N-hydroxysuccinimide (NHS, 0.05 M) and 1-ethyl-3-(3-dimethylaminopropyl)-carbodiimide (EDC, 0.2 M). The anti-Fc polyclonal antibodies were injected over all 4 flow cells at a concentration of 25 μg/mL in 10 mM sodium acetate, pH 4.5, for 7 min. Ethanolamine (1 M, pH 8.5) was injected for 7 min to block any remaining activated groups.
Off-rate and kinetic binding experiments were performed at 25° C. using 1×HBS-EP+buffer. Test and control antibodies were injected over the anti-Fc surface at concentrations of 5-10 μg/mL for 12 seconds at a flow rate of 10 μL/min on flow cells 2, 3 and 4, followed by a buffer wash for 30 seconds at the same flow rate.
The data were fit with the Biacore T200 Evaluation software, using a 1:1 Langmuir binding model. KD (affinity, nM) was determined as a ratio of the kinetic rate constants calculated from the fits of the association and dissociation phases.
(SPR reads the build-up and loss of mass on a sensor chip optically.)

Experiment [4] concerns the target FOLR1 on FOLR1-positive Igrov1 cells (UniProt P15328 25-234, limits assumed). The experiment in a line: cell-based or functional assay.

Chain of FOLR1 on FOLR1-positive Igrov1 cells (P15328 25-234 limits assumed): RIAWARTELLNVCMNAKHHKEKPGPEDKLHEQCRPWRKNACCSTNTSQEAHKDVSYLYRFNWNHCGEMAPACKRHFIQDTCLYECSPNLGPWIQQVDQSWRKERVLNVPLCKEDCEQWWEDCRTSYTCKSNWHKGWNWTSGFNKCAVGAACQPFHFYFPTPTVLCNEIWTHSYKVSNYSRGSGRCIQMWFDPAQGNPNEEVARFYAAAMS
T4 sequence (P15328 25-234 limits assumed): as above
T2 sequence (P15328 25-234 limits assumed): as above
T3 sequence (P15328 other isoform, or with tags, fused parts or gaps limits assumed): as the sequence (P15328 25-234 limits assumed) above, with I2T, W4R, R37K, Q117R, A146P, H171Y counted along it
T1 sequence (P35846 25-232 limits assumed): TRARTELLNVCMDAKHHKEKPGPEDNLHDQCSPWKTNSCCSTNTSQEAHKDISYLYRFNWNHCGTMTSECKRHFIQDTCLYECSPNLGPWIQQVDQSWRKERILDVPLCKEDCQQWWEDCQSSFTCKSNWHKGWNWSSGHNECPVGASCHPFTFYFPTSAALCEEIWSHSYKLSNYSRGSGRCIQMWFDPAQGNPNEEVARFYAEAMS

B1: SRP1848-E06 (antibody, V domains shown)
VH: EVQLVESGGGLVQPSGSLRLSCAASGFNINRYYIHWVRQAPGKGLEWVGGITPNDGYTDYADSVEGRFTTSADTSKNTAYLQMNSLRAEDTAVYYCARGTWSWPSGHSYYLDYWGQGTLVTVSS
VL: not shown
notes: VH/VL only; Fc-bearing IgG format with trastuzumab LC, HIS/FLAG-tagged, cell-free expressed; constant regions not tied; also called Antibody 35
On to B1, for which the Bmax in experiment [1] stood at 2350 MFI; in experiment [2], 25600 MFI; in experiment [3], 15800 MFI.

B2: SRP1848-H01 (antibody, V domains shown)
VH: EVQLVESGGGLVQPGGSLRLSCAASGFNIRTQSIHWVRQAPGKGLEWIGDIFPIDGITDYADSVKGRFTISADTSKNTAYLQMNSLRAEDTAVYYCARGSWSWPSGMDYYLDYWGQGTLVTVSS
VL: not shown
notes: trastuzumab light chain; captured through Fc in SPR (IgG format); HIS- and FLAG-tagged; also called Antibody 55
In the case of B2, in the experiment with human FOLR1-HIS, the koff was 0.00139 s⁻¹ and the on-rate (kon) is 659000 M⁻¹ s⁻¹.

B3: SRP2060-E10 (antibody, V domains shown)
VH: EVQLLESGGGLVQPGGSLRLSCAFSGFSLSTFGMGVGWVRQAPGKGLEWVSHIWWDDDKYYHPALKGRFTISKDNSKNTVYLQMNSLRAEDTAVYYCGRNHFPHYYGSSHWYFNVWGQGTTVTVSS
VL: EIVMTQSPATLSLSPGERATLSCKASQDINSYLSWYQQKPGQAPRLLIYRANRLVDGIPARFSGSGSGTDYTLTISSLEPEDFAVYYCLQYDEFPYTFGGGTKVEIK
With B3, in experiment [4], the “Igrov 2° Antibody Cell Killing, Nb-SC239: EC50” value was determined as 0.061 nM and the “Igrov 2° Antibody Cell Killing, Nb-SC239: span (%)” value amounted to 68%.

B4: SRP2060-B01 (antibody, V domains shown)
VH: EVQLLESGGGLVQPGGSLRLSCALSGFSLSTFGMGVGWVRQATGKGLEWVSHIWWDDDKYYHPALKGRFTISKDNSKNTVHLQMNSLRAEDTAVYYCGRNHFPHYYGSSHWYFNVWGQGTTVTVSS
VL: DIQMTQSPSTLSASVGDRVTITCKASQDINSYLSWYQQKPGKAPKLLIYRANRLVDGVPSRFSGSGSGTEFTLTISSLQPDDFATYYCLQYDEFPYTFGGGTKVEIK
As for B4, in experiment [4], the “Igrov 2° Antibody Cell Killing, Nb-SC239: EC50” value worked out at 0.045 nM and the “Igrov 2° Antibody Cell Killing, Nb-SC239: span (%)” value amounted to 76%.

B5: SRP2060-E05 (antibody, V domains shown)
VH: EVQLLESGGGLVQPGGSLRLSCAFSGFSLSTFGMGVGWVRQAPGKGLEWVSHIWWDDDKYYHPALKGRFTVSKDNSKNTVYLQMNSLRAEDTAVYYCGRNHFPHYYGSSHWYFNVWGQGTTVTVSS
VL: EIVMTQSPATLSLSPGERATLSCKASQDINSYLSWYQQKPGQAPRLLIYRANRLVDGIPARFSGSGSGTDYTLTISSLEPEDFAVYYCLQYDEFPYTFGGGTKVEIK
For B5, in experiment [4], the “Igrov 2° Antibody Cell Killing, Nb-SC239: EC50” value was 0.22 nM and the “Igrov 2° Antibody Cell Killing, Nb-SC239: span (%)” value was 71%.

B6: SRP2060-A06 (antibody, V domains shown)
VH: EVQLLESGGGLVQPGGSLRLSCAFSGFSLSTFGMGVGWVRQAPGKGLEWVGHIWWDDDKYYYPALKGRFTISKDNSKNTVYLQMNSLRAEDTAVYYCGRNHFPHYYGSSHWYFDVWGQGTTVTVSS
VL: DIQMTQSPSTLSASVGDRVTITCKASQDINSYLSWYQQKPGKAPKLLIYRANRLVDGVPSRFSGSGSGTEFTLTISSLQPDDFATYYCLQYDEFPYTFGGGTKVEIK
With B6, in experiment [4], the “Igrov 2° Antibody Cell Killing, Nb-SC239: EC50” value turned out to be 0.013 nM and the “Igrov 2° Antibody Cell Killing, Nb-SC239: span (%)” value was 66%.

A word on the koff: it is a measure of how fast the partners let go of each other. Broadly, the kon is the rate constant with which the complex forms. A high value points to faster complex formation.

For the origin of these results see US20190233512A1 (SUTRO BIOPHARMA, published 2019).
